Measured values: IntAct's records for PubMed 16294310

B1: Acyl carrier protein (Escherichia coli (strain K12)), P0A6A8 (parent)
chain: MSTIEERVKKIIGEQLGVKQEEVTNNASFVEDLGADSLDTVELVMALEEEFDTEIPDEEAEKITTVQAAIDYINGHQA
partner: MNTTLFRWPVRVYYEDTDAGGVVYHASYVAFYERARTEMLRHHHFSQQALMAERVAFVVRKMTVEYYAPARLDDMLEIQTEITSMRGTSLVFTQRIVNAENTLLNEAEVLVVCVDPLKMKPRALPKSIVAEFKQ

Variants of: B1
Details: with ybgc_ecoli ybgC

Row | effect of a mutation on the interaction | Variant
1 | disrupting interaction | S37C
